In paper PMC12657969:
Substitutions are numbered along the chain they refer to.

T1: GgeAgo_DM (Geobacillus genomosp. 3, UniProt S5Z517 1-710, D502A;D571A)
T1 sequence: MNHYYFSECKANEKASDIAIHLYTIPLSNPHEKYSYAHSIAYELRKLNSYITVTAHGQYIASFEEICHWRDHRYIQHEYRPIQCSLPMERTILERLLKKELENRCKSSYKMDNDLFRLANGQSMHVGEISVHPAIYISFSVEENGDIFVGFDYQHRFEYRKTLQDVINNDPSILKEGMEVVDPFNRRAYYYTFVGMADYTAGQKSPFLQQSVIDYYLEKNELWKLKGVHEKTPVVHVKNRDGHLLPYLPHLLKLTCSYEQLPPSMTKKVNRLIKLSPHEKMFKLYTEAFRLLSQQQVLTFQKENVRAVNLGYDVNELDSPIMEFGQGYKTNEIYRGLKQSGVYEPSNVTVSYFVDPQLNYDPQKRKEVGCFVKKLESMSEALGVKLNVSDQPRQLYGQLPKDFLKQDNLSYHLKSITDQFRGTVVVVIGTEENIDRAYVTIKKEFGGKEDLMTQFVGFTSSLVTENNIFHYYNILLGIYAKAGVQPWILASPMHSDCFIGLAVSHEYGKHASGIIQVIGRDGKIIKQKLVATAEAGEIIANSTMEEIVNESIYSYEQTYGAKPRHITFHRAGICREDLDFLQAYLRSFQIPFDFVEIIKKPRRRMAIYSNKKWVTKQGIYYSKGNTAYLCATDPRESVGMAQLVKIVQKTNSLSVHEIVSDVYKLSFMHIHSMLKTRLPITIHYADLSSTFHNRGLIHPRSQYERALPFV

T2: GgeAgo (Geobacillus genomosp. 3, UniProt S5Z517 1-710)
T2 sequence: T1 sequence with A502D, A571D

B1: 5'P-gDNA / T-tDNA target (mixed)
DNA 1: TGAGGTAGTAGGTTGTAT
DNA 2: AAACGACGGCCAGTGCCAAGCTTACTATACAACCTACTACCTCAT
modifications: guide 5' phosphate
B2: 5'OH-gDNA / T-tDNA target (mixed)
DNA 1: TGAGGTAGTAGGTTGTAT
DNA 2: B1 DNA 2
modifications: guide 5' OH
B3: 5'P-gDNA / U-tRNA (RNA target) (DNA:RNA)
DNA: TGAGGTAGTAGGTTGTAT
RNA: AAACGACGGCCAGUGCCAAGCUUACUAUACAACCUACUACCUCAU
modifications: guide 5' phosphate
B4: 5'OH-gDNA / U-tRNA (RNA target) (DNA:RNA)
DNA: TGAGGTAGTAGGTTGTAT
RNA: B3 RNA
modifications: guide 5' OH

The binders below were run against T1, GgeAgo_DM (assay: fluorescence polarization).
B1 showed a Kd of 8.69 ± 1.28 nM.
Work on B2 yielded a Kd of 20 ± 2.29 nM.
B3 showed a Kd of 10.7 ± 1.11 nM.
B4 gave a Kd of 32.2 ± 4.9 nM.

These binders were tested against T2, GgeAgo (assay: fluorescence polarization).
For TGAGGTAGTAGGTTGTAT (ssDNA, 5' phosphate) [5'P-gDNA (T-gDNA iFAM)], the Kd was 8.23 ± 1.47 nM.
With TGAGGTAGTAGGTTGTAT (ssDNA, 5' OH) [5'OH-gDNA (T-gDNA iFAM)] the Kd was 11.1 ± 1.88 nM.
